Laboratory results published in the supplement of paper PMC9732359.
± gives the uncertainty stated by the source.

Assay: protein stability index of a GFP-peptide fusion (yeast GPS) (PSI 1-4); higher = more stable; sorted into four equal gates, so the index is relative within each strain
In short: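 Mid-log yeast cultures in leucine-free medium, carrying a pooled plasmid library, were sorted into four equal gates by their GFP/Cherry fluorescence ratio. Each plasmid expressed Cherry along with GFP fused upstream of a tiled 17-residue yeast protein peptide. Plasmids recovered from each gate were PCR-amplified and Illumina-sequenced, with reads assigned to strains by barcodes. The protein stability index was obtained by summing each gate's read frequency weighted by its gate number.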

Row | Sequence | protein stability index (doa10∆) | protein stability index (pdr5∆) | protein stability index (san1∆) | protein stability index (ubr1∆)
1 | DDTWYNLTEFVQMDKIR [AAR2] | 2.82 ± 0.11 | 2.88 ± 0.081 | 2.79 ± 0.061 | 2.83 ± 0.084
2 | DEANIEIDPLTGMPISN [BRN1] | – | 2.65 ± 0.25 | – | 2.42 ± 0.27
3 | DEATVPNTRDAESEAIT [SWI3] | 3.09 ± 0.077 | 3.15 ± 0.06 | 3.18 ± 0.066 | 3.23 ± 0.052
4 | DEDDDLDEDDVNADDDD [RPB4] | 3.12 ± 0.1 | 3.13 ± 0.086 | 2.09 ± 0.16 | 3 ± 0.11
5 | DEDESQNIAQSSNQSAP [HRT1] | 2.99 ± 0.07 | 3.15 ± 0.074 | 3.14 ± 0.051 | 3.19 ± 0.043
6 | DEEGIFSRFVDQFIRHV [YCG1] | 2.98 ± 0.16 | 2.79 ± 0.13 | 2.99 ± 0.085 | 2.93 ± 0.06
7 | DEGLLNMVSLRGRNDTL [GRR1] | 2.55 ± 0.15 | 2.49 ± 0.14 | 2.51 ± 0.097 | 2.83 ± 0.17
8 | DEIYIPINGNEAESQWY [CSI1] | 2.63 ± 0.065 | 3.13 ± 0.06 | 3.11 ± 0.07 | 3.31 ± 0.064
9 | DEKNKNNNEDNENNNNS [MED2] | 3.11 ± 0.084 | 3.39 ± 0.069 | 3.17 ± 0.062 | 3.28 ± 0.064
10 | DELILPLPSHALTVQEV [YDL116W/NUP84] | 2.4 ± 0.038 | 2.56 ± 0.036 | 2.15 ± 0.057 | 2.44 ± 0.025
11 | DELMVIYISNLVRSIIA [RPN8] | 2.44 ± 0.28 | 3.22 ± 0.17 | – | 3.24 ± 0.11
12 | DESYARAYRIIRAHQTE [QCR7] | 3.17 ± 0.17 | 3.43 ± 0.17 | 3.14 ± 0.22 | 3.41 ± 0.091
13 | DETKGFDDNDSGNNYND [MED2] | 3.1 ± 0.055 | 3.07 ± 0.058 | 3.13 ± 0.053 | 3.1 ± 0.048
14 | DEYQAAVEQRKKEKLDS [DPB4] | 3.47 ± 0.13 | 3.34 ± 0.14 | 3.38 ± 0.11 | 3.39 ± 0.095
15 | DFDGDEMNLHVPQSEET [RPO21] | 3.04 ± 0.083 | 3.12 ± 0.063 | 2.98 ± 0.045 | 3.23 ± 0.074
16 | DFISPELIIDKVTCSSN [MED1] | 1.69 ± 0.1 | 1.75 ± 0.099 | 1.82 ± 0.22 | 1.37 ± 0.09
17 | DFLRYINIKYLRLDGHT [SNF2] | 2.5 ± 0.071 | 1.32 ± 0.062 | 1.4 ± 0.14 | 1.65 ± 0.06
18 | DFVRNELNDIDTKIDQV [SMC3] | 3.19 ± 0.15 | 3.31 ± 0.11 | 3.12 ± 0.14 | 3.29 ± 0.13
19 | DGFKIYDNEKTAELIKE [PUP2] | 3.29 ± 0.1 | 3.32 ± 0.15 | 3.15 ± 0.061 | 3.18 ± 0.13
20 | DGGLEEETDEVSSESSD [SIR3] | 3.3 ± 0.099 | 3.3 ± 0.11 | 3.2 ± 0.089 | 3.24 ± 0.086
21 | DGIVVKNAVVRSKFGGD [ARP7] | 3.24 ± 0.26 | 1.92 ± 0.2 | 3.16 ± 0.25 | 3.56 ± 0.2
22 | DGKEDVEKGTPLGKILL [SME1] | 3.57 ± 0.071 | 3.44 ± 0.09 | 3.53 ± 0.053 | 3.56 ± 0.075
23 | DGLEKAAFNGVTFKDKY [FAS2] | 1.94 ± 0.083 | 1.57 ± 0.096 | 1.85 ± 0.14 | 2.09 ± 0.12
24 | DGMDAAHIEKQSLDTIG [RPO21] | 3.36 ± 0.088 | 3.29 ± 0.095 | 3.24 ± 0.093 | 3.05 ± 0.083
25 | DGNNEIFTCQIMNLITN [RPN4] | 2.09 ± 0.083 | 2.62 ± 0.18 | 2.35 ± 0.2 | 2.35 ± 0.25
26 | DGTAKEVGDEADNTKDK [MED4] | 3.06 ± 0.11 | 3.18 ± 0.12 | 3.34 ± 0.088 | 3.22 ± 0.077
27 | DHDDSTDDADDHINWEH [NSL1] | 3.31 ± 0.088 | 3.31 ± 0.094 | 3.26 ± 0.056 | 3.35 ± 0.04
